Key:
Test in all cases: BLI
[1] = system: Respiratory syncytial virus virions (surface protein not named) (Respiratory syncytial virus A2); conditions: BLI: PBS pH 7.4 (8 mM Na2HPO4, 1.5 mM KH2PO4, 140 mM NaCl, 10 mM KCl), 0.01% Tween-20, 0.1 mg/mL BSA; biotin-aptamer on streptavidin sensor; virus as analyte …
[2] = system: Influenza A virus virions (hemagglutinin is the stated target of RHA0385) (Influenza A virus H7N1); conditions: BLI: PBS pH 7.4 ([…]; temperature not stated
[3] = system: Adenovirus type 5 virions (surface protein not named) (Human adenovirus 5?); conditions: BLI: PBS pH 7.4 (8 mM Na2HPO4, 1.5 mM KH2PO4, 140 mM NaCl, 10 mM KCl), 0.01% Tween-20, 0.1 mg/mL BSA; biotin-aptamer on streptavidin sensor; virus as analyte …
[4] = target: SARS-CoV-2 virions (S protein RBD is the stated target of RBD-1C) (SARS-CoV-2) (UniProt P0DTC2); conditions: BLI: PBS pH 7.4 ([…]; temperature not stated

Question: What does the source list for “AGTGCGGTGAGCCGTCGGACATACAAATAC [Biotin-H8]”?
Answer: Kd [1]: 0.031 pM; Kd [2]: 3.5 pM

Question: For “GTGCCAGCTATGCCATTGGCGGGTCGTCCAATTCGAGAGGTCCCCTAGCGTCTATCTCTGCTGC [Biotin-ADV-20]”, which Kd [1] is on record?
Answer: 0.38 pM

Question: And the Kd [3]?
Answer: 0.011 pM

Question: What about the Kd [4] of the same sequence?
Answer: 50 pM

Question: What about the Kd [2] of the same sequence?
Answer: 2.6 pM

Question: Which Kd [4] does the source give for “CAGCACCGACCTTGTGCTTTGGGAGTGCTGGTCCAAGGGCGTTAATGGACA [Biotin-RBD-1C]” here?
Answer: 0.071 pM

Question: With “TTGGGGTTATTTTGGGAGGGCGGGGGTT [Biotin-RHA0386 (RHA0385 in text)]” as the sequence, how does the Kd [2] read?
Answer: 0.021 pM

— PMC10178974
